The target in this test is clathrin N-terminal domain (NTD) (UniProt Q00610). The test can be described thus: fluorescence polarisation + ITC.
Chain of UniProt Q00610 (Q00610 1-364): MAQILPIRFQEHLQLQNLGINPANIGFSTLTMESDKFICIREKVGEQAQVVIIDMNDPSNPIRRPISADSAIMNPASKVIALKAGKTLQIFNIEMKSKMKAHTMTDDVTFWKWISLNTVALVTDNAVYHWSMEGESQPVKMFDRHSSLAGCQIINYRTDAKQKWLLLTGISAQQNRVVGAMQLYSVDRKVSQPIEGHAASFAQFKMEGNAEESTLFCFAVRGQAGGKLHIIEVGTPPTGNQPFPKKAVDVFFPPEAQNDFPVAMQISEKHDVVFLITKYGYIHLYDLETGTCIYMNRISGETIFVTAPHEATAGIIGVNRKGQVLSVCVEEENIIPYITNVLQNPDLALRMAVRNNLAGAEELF

For the substance “HURP_(832-846) phosphorylated peptide (pS839) (from UniProt Q15398 832-846)”, the fold increase in affinity against the wild-type peptide stood at 20 fold.
